B1: GpH7-A5/GpH7-B3 variant T335_04F/GpL16-k0 (antibody, human IgG1, kappa)
heavy 1: not shown
heavy 2: not shown
light: DIVMTQSPLSLPVTPGEPASISCQASESLVHSNRNTYLHWYLQKPGQSPQLLIYKVSNRFSGVPDRFSGSGSGTDFTLKISRVEAEDVGVYYCSQNTHVPPTFGQGTKVEIERTVAAPSVFIFPPSDEQLKSGTASVVCLLNNFYPREAKVQWKVDNALQSGNSQESVTEQDSKDSTYSLSSTLTLSKADYEKHKVYACEVTHQGLSSPVTKSFNRGEC
notes: heterodimerized IgG1, mutation in one H chain only; also called He Ab
B2: GpH7-A5/GpH7-B3 variant H268_18N/GpL16-k0 (antibody, human IgG1, kappa)
heavy 1: not shown
heavy 2: not shown
light: B1 light
notes: as for B1
B3: GpH7-A5/GpH7-B3 variant H268_13S/GpL16-k0 (antibody, human IgG1, kappa)
heavy 1: not shown
heavy 2: not shown
light: B1 light
notes: as for B1
B4: GpH7-A5/GpH7-B3 variant H268_10E/GpL16-k0 (antibody, human IgG1, kappa)
heavy 1: not shown
heavy 2: not shown
light: B1 light
notes: as for B1
B5: GpH7-A5/GpH7-B3 variant A330_01G/GpL16-k0 (antibody, human IgG1, kappa)
heavy 1: not shown
heavy 2: not shown
light: B1 light
notes: as for B1
B6: GpH7-A5/GpH7-B3 variant A330_20W/GpL16-k0 (antibody, human IgG1, kappa)
heavy 1: not shown
heavy 2: not shown
light: B1 light
notes: as for B1
B7: GpH7-A5/GpH7-B3 variant H268_09D/GpL16-k0 (antibody, human IgG1, kappa)
heavy 1: not shown
heavy 2: not shown
light: B1 light
notes: as for B1
B8: GpH7-A5/GpH7-B3 variant A330_19Q/GpL16-k0 (antibody, human IgG1, kappa)
heavy 1: not shown
heavy 2: not shown
light: B1 light
notes: as for B1
B9: GpH7-A5/GpH7-B3 variant I336_09D/GpL16-k0 (antibody, human IgG1, kappa)
heavy 1: not shown
heavy 2: not shown
light: B1 light
notes: as for B1
B10: GpH7-A5/GpH7-B3 variant A330_04F/GpL16-k0 (antibody, human IgG1, kappa)
heavy 1: not shown
heavy 2: not shown
light: B1 light
notes: as for B1
B11: GpH7-A5/GpH7-B3 variant I336_11K/GpL16-k0 (antibody, human IgG1, kappa)
heavy 1: not shown
heavy 2: not shown
light: B1 light
notes: as for B1
B12: GpH7-A5/GpH7-B3 variant I336_14T/GpL16-k0 (antibody, human IgG1, kappa)
heavy 1: not shown
heavy 2: not shown
light: B1 light
notes: as for B1
B13: GpH7-A5/GpH7-B3 variant A330_10E/GpL16-k0 (antibody, human IgG1, kappa)
heavy 1: not shown
heavy 2: not shown
light: B1 light
notes: as for B1
B14: GpH7-A5/GpH7-B3 variant H268_01G/GpL16-k0 (antibody, human IgG1, kappa)
heavy 1: not shown
heavy 2: not shown
light: B1 light
notes: as for B1
B15: GpH7-A5/GpH7-B3 variant I336_12R/GpL16-k0 (antibody, human IgG1, kappa)
heavy 1: not shown
heavy 2: not shown
light: B1 light
notes: as for B1
B16: GpH7-A5/GpH7-B3 variant D265_10E/GpL16-k0 (antibody, human IgG1, kappa)
heavy 1: not shown
heavy 2: not shown
light: B1 light
notes: as for B1
B17: GpH7-A5/GpH7-B3 variant I336_13S/GpL16-k0 (antibody, human IgG1, kappa)
heavy 1: not shown
heavy 2: not shown
light: B1 light
notes: as for B1
B18: GpH7-A5/GpH7-B3 variant I336_08L/GpL16-k0 (antibody, human IgG1, kappa)
heavy 1: not shown
heavy 2: not shown
light: B1 light
notes: as for B1
B19: GpH7-B3 variant Y300_11K/GpL16-k0 (antibody, human IgG1, kappa)
heavy: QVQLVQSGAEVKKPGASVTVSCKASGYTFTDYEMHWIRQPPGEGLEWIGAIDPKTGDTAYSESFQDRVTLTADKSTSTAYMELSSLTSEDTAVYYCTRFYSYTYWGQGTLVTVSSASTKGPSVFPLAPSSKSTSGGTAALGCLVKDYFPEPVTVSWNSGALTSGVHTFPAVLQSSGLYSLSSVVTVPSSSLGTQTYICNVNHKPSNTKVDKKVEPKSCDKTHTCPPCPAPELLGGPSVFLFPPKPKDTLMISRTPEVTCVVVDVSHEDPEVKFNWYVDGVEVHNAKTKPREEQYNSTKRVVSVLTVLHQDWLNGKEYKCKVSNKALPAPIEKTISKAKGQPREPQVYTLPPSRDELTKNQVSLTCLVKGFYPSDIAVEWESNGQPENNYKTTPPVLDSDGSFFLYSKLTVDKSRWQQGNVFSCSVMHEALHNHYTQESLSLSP
light: B1 light
notes: homodimerized IgG1, mutation in both H chains; also called Ho Ab
B20: GpH7-B3 variant Y300_20W/GpL16-k0 (antibody, human IgG1, kappa)
heavy: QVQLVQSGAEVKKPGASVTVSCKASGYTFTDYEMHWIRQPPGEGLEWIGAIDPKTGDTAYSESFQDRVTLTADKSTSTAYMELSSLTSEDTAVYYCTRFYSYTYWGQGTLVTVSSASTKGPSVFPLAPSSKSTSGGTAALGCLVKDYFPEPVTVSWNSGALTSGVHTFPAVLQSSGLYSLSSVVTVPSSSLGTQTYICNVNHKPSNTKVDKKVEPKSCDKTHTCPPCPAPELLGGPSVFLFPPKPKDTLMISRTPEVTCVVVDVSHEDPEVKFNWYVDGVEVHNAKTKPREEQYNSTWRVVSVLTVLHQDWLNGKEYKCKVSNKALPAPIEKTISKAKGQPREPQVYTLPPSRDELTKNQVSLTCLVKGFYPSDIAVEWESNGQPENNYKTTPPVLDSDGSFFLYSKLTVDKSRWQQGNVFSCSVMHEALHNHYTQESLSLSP
light: B1 light
notes: as for B19
B21: GpH7-B3 variant Y300_14T/GpL16-k0 (antibody, human IgG1, kappa)
heavy: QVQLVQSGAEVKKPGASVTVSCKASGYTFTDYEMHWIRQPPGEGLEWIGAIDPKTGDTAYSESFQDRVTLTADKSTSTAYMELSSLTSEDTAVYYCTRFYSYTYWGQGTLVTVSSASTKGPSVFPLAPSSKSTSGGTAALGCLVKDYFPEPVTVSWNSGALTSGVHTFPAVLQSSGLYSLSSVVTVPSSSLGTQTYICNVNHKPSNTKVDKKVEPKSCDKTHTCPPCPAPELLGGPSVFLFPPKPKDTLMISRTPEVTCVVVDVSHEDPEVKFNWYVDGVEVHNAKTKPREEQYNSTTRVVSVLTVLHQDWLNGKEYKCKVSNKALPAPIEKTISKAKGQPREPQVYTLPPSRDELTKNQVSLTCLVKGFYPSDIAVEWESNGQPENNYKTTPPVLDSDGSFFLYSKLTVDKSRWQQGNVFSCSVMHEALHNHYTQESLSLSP
light: B1 light
notes: as for B19
B22: GpH7-B3 variant Y300_19Q/GpL16-k0 (antibody, human IgG1, kappa)
heavy: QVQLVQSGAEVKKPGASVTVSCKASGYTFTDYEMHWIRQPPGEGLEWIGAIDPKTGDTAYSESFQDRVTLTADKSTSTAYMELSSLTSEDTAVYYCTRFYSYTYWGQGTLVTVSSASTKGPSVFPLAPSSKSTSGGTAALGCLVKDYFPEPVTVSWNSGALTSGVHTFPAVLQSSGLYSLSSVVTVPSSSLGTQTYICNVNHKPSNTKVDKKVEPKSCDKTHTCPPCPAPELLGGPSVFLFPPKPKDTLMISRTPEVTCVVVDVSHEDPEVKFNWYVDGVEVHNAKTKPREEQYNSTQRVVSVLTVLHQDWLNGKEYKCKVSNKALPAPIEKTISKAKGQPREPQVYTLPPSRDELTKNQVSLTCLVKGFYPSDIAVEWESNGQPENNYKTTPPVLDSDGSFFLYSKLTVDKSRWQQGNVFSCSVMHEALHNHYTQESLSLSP
light: B1 light
notes: as for B19
B23: GpH7-B3 variant Y300_13S/GpL16-k0 (antibody, human IgG1, kappa)
heavy: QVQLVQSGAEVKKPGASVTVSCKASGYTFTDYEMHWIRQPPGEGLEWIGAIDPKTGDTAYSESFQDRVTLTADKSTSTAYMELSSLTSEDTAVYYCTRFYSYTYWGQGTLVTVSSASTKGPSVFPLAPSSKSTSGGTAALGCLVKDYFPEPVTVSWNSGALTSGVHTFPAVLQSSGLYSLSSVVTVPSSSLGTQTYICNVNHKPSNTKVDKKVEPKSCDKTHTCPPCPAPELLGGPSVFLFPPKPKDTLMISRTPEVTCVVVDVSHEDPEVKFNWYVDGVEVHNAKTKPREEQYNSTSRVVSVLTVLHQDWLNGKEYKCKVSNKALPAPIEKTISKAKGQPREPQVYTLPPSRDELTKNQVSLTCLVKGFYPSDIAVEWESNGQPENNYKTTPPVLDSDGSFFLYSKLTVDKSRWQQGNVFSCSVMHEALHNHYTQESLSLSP
light: B1 light
notes: as for B19

Molecular target: T1, FcγRIa (human, UniProt P12314 16-292)
T1 construct: extracellular domain; soluble His-tagged extracellular domain expressed in FreeStyle293 cells, used as analyte in Biacore; also called FcgRI; CD64
Experiment: SPR (Biacore), captured antibody, FcγRIa analyte; relative to GpH7-A5/GpH7-B3/GpL16-k0

T1 sequence (P12314 16-292): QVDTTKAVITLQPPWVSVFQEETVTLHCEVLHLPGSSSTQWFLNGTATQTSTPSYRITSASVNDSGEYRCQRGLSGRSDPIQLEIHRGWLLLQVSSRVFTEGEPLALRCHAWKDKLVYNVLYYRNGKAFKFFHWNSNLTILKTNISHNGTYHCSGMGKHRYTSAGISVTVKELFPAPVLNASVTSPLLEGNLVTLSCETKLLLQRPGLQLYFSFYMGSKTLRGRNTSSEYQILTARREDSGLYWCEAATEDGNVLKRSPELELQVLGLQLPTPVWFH

He/Con_1a | Binder
105 relative, control = 100 | B1
108 relative, control = 100 | B2
109 relative, control = 100 | B3
111 relative, control = 100 | B4
106 relative, control = 100 | B5
108 relative, control = 100 | B6
110 relative, control = 100 | B7
105 relative, control = 100 | B8
104 relative, control = 100 | B9
106 relative, control = 100 | B10
105 relative, control = 100 | B11
104 relative, control = 100 | B12
107 relative, control = 100 | B13
107 relative, control = 100 | B14
102 relative, control = 100 | B15
101 relative, control = 100 | B16
102 relative, control = 100 | B17
107 relative, control = 100 | B18

Molecular target: T1, FcγRIa
Experiment: SPR (Biacore), captured antibody, FcγRIa analyte; relative to GpH7-B3/GpL16-k0

Ho/Con_1a | Binder
101 relative, control = 100 | B19
110 relative, control = 100 | B20
110 relative, control = 100 | B21
110 relative, control = 100 | B22
110 relative, control = 100 | B23

— US20150344570A1 (published 2015)
